Square brackets hold non-standard residues; d marks the D form. Primed or numbered codes have the meaning given here. Ends that are not written are not given here. Phe(4-NO2) = N[C@@H](Cc1ccc([N+](=O)[O-])cc1)C(=O)O; Phe(4-Cl) = N[C@@H](Cc1ccc(Cl)cc1)C(=O)O; Phe(4-F) = N[C@@H](Cc1ccc(F)cc1)C(=O)O; Api = NC1(C(=O)O)CCNCC1; NMA″ = not defined here; NMA = N-methylarginine; GABA = NCCCC(=O)O; Sar = CNCC(=O)O
Assays:
Experiment in all cases: cell-based or functional assay
[1] = target: Mu opioid receptor (MOR)
[2] = target: Delta opioid receptor (DOR)
[3] = target: T1, Kappa opioid receptor (KOR) (Homo sapiens (Human), UniProt P41145 1-380)
[4] = target: Mu opioid receptor (MOR); remark: listed apart in the source
[5] = target: T1, Kappa opioid receptor (KOR); remark: listed apart in the source
[6] = target: Delta opioid receptor (DOR); remark: listed apart in the source

T1 sequence (P41145 whole entry, form in doubt): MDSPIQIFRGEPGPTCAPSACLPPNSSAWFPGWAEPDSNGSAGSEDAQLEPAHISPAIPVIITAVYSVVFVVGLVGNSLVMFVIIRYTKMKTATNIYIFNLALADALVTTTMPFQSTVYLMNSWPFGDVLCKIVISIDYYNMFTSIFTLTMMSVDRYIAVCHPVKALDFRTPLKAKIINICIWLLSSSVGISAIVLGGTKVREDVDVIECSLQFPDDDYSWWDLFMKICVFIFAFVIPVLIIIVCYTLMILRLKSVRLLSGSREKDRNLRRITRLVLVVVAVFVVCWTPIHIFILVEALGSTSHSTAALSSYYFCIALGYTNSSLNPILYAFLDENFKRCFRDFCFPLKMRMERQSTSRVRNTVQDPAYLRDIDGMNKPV
Mu opioid receptor (MOR), sequence (P35372 whole entry): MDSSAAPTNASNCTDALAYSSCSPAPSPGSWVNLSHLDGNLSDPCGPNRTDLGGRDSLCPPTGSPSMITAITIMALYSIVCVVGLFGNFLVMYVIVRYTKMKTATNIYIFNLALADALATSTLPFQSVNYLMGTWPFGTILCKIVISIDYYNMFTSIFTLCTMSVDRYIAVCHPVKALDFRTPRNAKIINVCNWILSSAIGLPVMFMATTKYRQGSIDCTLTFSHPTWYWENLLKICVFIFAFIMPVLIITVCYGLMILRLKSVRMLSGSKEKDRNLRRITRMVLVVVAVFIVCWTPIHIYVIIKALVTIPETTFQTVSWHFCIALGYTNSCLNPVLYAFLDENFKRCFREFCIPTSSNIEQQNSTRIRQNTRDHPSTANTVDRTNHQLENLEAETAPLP

Row | Binder | Activity (EC50, nM), cAMP assay [1] [nM] | Activity (EC50, nM), cAMP assay [2] [nM] | Activity (EC50, nM), cAMP assay [3] [nM] | cAMP assay (ALPHAScreen), result at 1 µM peptide [4] | cAMP assay (ALPHAScreen), result at 10 µM peptide [4] | cAMP assay (ALPHAScreen), result at 1 µM peptide [5] | cAMP assay (ALPHAScreen), result at 10 µM peptide [5] | cAMP assay (ALPHAScreen), result at 1 µM peptide [6] | cAMP assay (ALPHAScreen), result at 10 µM peptide [6]
1 | H-Y[Sar][Phe(4-NO2)]LRX-NH2 (not fully specified (residue 6); printed as NH2-Tyr-Sar-(4-NO2)Phe-Leu-Arg-NMA-NH2) [SEQ ID NO. 18: NH2-Tyr-Sar-(4-NO2)Phe-Leu-Arg-NMA-NH2] | > 10000 | > 10000 | – | – | – | – | – | – | –
2 | H-Y[Sar][Phe(4-Cl)]LR[dR]IR-NH2 [SEQ ID NO. 20: NH2-Tyr-Sar-(4-Cl)Phe-Leu-Arg-DArg-Ile-Arg-NH2] | > 10000 | 3580 | – | – | – | – | – | – | –
3 | H-Y[Sar][Phe(4-Cl)]LR[dR] (not fully specified (C-terminus); printed as NH2-Tyr-Sar-(4-Cl)Phe-Leu-Arg-DArg-C7H14-COOH) [SEQ ID NO. 28: NH2-Tyr-Sar-(4-Cl)Phe-Leu-Arg-DArg-C7H14-COOH] | > 10000 | > 10000 | 2.33 | – | – | – | – | – | –
4 | H-Y[Sar][Phe(4-F)]L[NMA][dR]-NH2 [SEQ ID NO. 14: NH2-Tyr-Sar-(4-F)Phe-Leu-NMA-DArg-NH2] | 4000 | 1660 | 11.6 | – | – | – | – | – | –
5 | H-Y[Sar][Phe(4-F)]LR[dR]-NH2 [SEQ ID NO. 12: NH2-Tyr-Sar-(4-F)Phe-Leu-Arg-DArg-NH2] | 3450 | > 10000 | 6.7 | – | – | – | – | – | –
6 | H-Y[Sar][Phe(4-Cl)]LR[dR]-{C7H14‑CONH2} [SEQ ID NO. 24: NH2-Tyr-Sar-(4-Cl)Phe-Leu-Arg-DArg-C7H14-CONH2] | > 10000 | > 10000 | – | – | – | – | – | – | –
7 | H-Y[Sar][Phe(4-Cl)]LX[dR]-NH2 (not fully specified (residue 5); printed as NH2-Tyr-Sar-(4-Cl)Phe-Leu-NMA-DArg-NH2) [SEQ ID NO. 13: NH2-Tyr-Sar-(4-Cl)Phe-Leu-NMA-DArg-NH2] | > 10000 | > 10000 | 4.54 | – | – | – | – | – | –
8 | H-Y[Sar][Phe(4-Cl)]LR[dR]I[dR]-NH2 [SEQ ID NO. 25: NH2-Tyr-Sar-(4-Cl)Phe-Leu-Arg-DArg-Ile-DArg-NH2] | 1610 | > 10000 | – | – | – | – | – | – | –
9 | H-Y[Sar][Phe(4-NO2)]L[dR]R-NH2 [SEQ ID NO. 5: NH2-Tyr-Sar-(4-NO2)Phe-Leu-DArg-Arg-NH2] | – | – | – | -0.05 | 4.32 | 33.4 | 43.1 | 0.05 | 2.02
10 | H-Y[Sar]FL[dR][dR]-NH2 [SEQ ID NO. 7: NH2-Tyr-Sar-Phe-Leu-DArg-DArg-NH2] | – | – | – | 0.13 | 4.19 | 18.3 | 36 | -0.68 | 2.53
11 | H-Y[Sar][Phe(4-Cl)]LR[dR]-NH2 [SEQ ID NO. 11: NH2-Tyr-Sar-(4-Cl)Phe-Leu-Arg-DArg-NH2] | > 10000 | > 10000 | 6.1 | -0.86 | 1.37 | 27.7 | 34 | -1.18 | 4.27
12 | H-Y[Sar][Phe(4-Cl)]LK[dR]-NH2 (SMILES CC(C)C[C@H](NC(=O)[C@H](Cc1ccc(Cl)cc1)NC(=O)CN(C)C(=O)[C@@H](N)Cc1ccc(O)cc1)C(=O)N[C@@H](CCCCN)C(=O)N[C@H](CCCNC(=N)N)C(N)=O) [SEQ ID NO. 16: NH2-Tyr-Sar-(4-Cl)Phe-Leu-Lys-DArg-NH2] | > 10000 | – | 26 | – | – | – | – | – | –
13 | H-F[Sar][Phe(4-NO2)]L[dR][dR]-NH2 (SMILES CC(C)C[C@H](NC(=O)[C@H](Cc1ccc([N+](=O)[O-])cc1)NC(=O)CN(C)C(=O)[C@@H](N)Cc1ccccc1)C(=O)N[C@H](CCCNC(=N)N)C(=O)N[C@H](CCCNC(=N)N)C(N)=O) [SEQ ID NO. 9: NH2-Phe-Sar-(4-NO2)Phe-Leu-DArg-DArg-NH2] | – | – | – | -0.97 | -0.64 | 2.46 | 23.1 | -0.5 | 1.83
14 | H-Y[GABA]FLRR-NH2 (SMILES CC(C)C[C@H](NC(=O)[C@H](Cc1ccccc1)NC(=O)CCCNC(=O)[C@@H](N)Cc1ccc(O)cc1)C(=O)N[C@@H](CCCNC(=N)N)C(=O)N[C@@H](CCCNC(=N)N)C(N)=O) [SEQ ID NO. 1: NH2-Tyr-Gaba-Phe-Leu-Arg-Arg-NH2] | – | – | – | -6.78 | 7.28 | 4.23 | 22.9 | 2.57 | 19.6
15 | H-Y[Sar][Phe(4-Cl)]LR[NMA″]-NH2 (reading uncertain; also: printed as NH2-Tyr-Sar-(4-Cl)Phe-Leu-Arg-NMA-NH2) [SEQ ID NO. 17: NH2-Tyr-Sar-(4-Cl)Phe-Leu-Arg-NMA-NH2] | > 10000 | – | 3.9 | – | – | – | – | – | –
16 | H-Y[Sar]FLR[dR]-NH2 [SEQ ID NO. 3: NH2-Tyr-Sar-Phe-Leu-Arg-DArg-NH2] | > 10000 | > 10000 | 74.7 | -0.68 | 2.17 | 27.2 | 43.6 | -2.27 | 2.24
17 | H-Y[Sar][Phe(4-NO2)]LR[dR]-{C7H14‑CONH2} [SEQ ID NO. 31: NH2-Tyr-Sar-(4-NO2)Phe-Leu-Arg-DArg-C7H14-CONH2] | > 10000 | > 10000 | 2.49 | – | – | – | – | – | –
18 | [dF][dF][dL][dK][Api]-OH (N-terminus assumed; SMILES CC(C)C[C@@H](NC(=O)[C@@H](Cc1ccccc1)NC(=O)[C@H](N)Cc1ccccc1)C(=O)N[C@H](CCCCN)C(=O)NC1(C(=O)O)CCNCC1) [CR845 (SEQ ID NO. 35: DPhe-DPhe-DLeu-DLys-Cap-CO2H)] | > 10000 | > 10000 | 0.37 | 0.37 | 8.07 | 25.9 | 34.6 | -5.72 | 3.27
19 | H-Y[Sar]FLRR-NH2 [SEQ ID NO. 2: NH2-Tyr-Sar-Phe-Leu-Arg-Arg-NH2] | 6700 | > 10000 | 8.6 | -2.5 | 12.4 | 21.6 | 32.4 | -0.47 | 22
20 | H-Y[Sar][Phe(4-NO2)]L[dK][dR]-NH2 [SEQ ID NO. 10: NH2-Tyr-Sar-(4-NO2)Phe-Leu-DLys-DArg-NH2] | – | – | – | -1.27 | 0.02 | 8.47 | 25.1 | -3 | -0.95
21 | H-Y[Sar][Phe(4-NO2)]L[NMA][dR]-NH2 [SEQ ID NO. 15: NH2-Tyr-Sar-(4-NO2)Phe-Leu-NMA-DArg-NH2] | > 10000 | 1320 | 13.5 | – | – | – | – | – | –
22 | H-Y[Sar]FL[dR]R-NH2 [SEQ ID NO. 6: NH2-Tyr-Sar-Phe-Leu-DArg-Arg-NH2] | – | – | – | 1.04 | 7.84 | 14.2 | 35.1 | -0.03 | 2.25
23 | H-Y[Sar][Phe(4-NO2)]LR[dR]-NH2 [SEQ ID NO. 4: NH2-Tyr-Sar-(4-NO2)Phe-Leu-Arg-DArg-NH2] | > 10000 | > 10000 | – | 0.17 | 2.52 | – | – | -0.75 | 2.04

— patent US20240301023A1 (PREVECEUTICAL MEDICAL, published 2024)
